Columns and labels:
[1] = target: T1, interaction between JUN1 and JunZ (c-Jun dimerization) (Homo sapiens, UniProt P05412); test: Reverse-2-hybrid screening for inhibition of c-Jun dimerization in yeast; assay type: cell-based; settings: for yeast survival on media for counter-selection against AP-1 complex formation viz. c-Jun dimerization: initial reverse-two-hybrid screen, clones expressed from pYTB3; for recapitulation of the disruption phenotype: plasmid clones rescued and re-transformed, two assays
T1 construct: Partial fragments of c-Jun i.e., JunZ (774-927 bp) and Jun1 (558-1002 bp); expressed in transfected cells; host or cells: Saccharomyces cerevisiae strain PRT480, mated with library strain PRT51
T1 sequence (P05412 259-309 limits assumed): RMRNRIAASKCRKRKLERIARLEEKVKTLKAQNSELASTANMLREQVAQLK
T1 sequence (P05412 187-331 limits assumed): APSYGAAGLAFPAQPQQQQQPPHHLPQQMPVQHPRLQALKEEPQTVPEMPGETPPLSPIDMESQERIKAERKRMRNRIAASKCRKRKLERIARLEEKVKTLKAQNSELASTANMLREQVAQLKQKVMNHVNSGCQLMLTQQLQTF
Source text: The yeast two hybrid system described by Vidal.M., In: The Yeast Two Hybrid System (eds. P. Bartel and S. Fields), Oxford University Press, New York (1997), was modified to add another counter selectable marker (CYH2) and to allow flexible titration of stringency by adjustment of sugar concentrations in the screening media.
Partial fragments of c-Jun i.e., JunZ (774-927 bp) and Jun1 (558-1002 bp), were cloned into yeast two-hybrid vectors pDD (a kanamycin-resistant variant of pGilda bait vector) and pJFK (pYesTrp prey vector (Invitrogen) modified by replacing the TRP1 yeast selection gene with HIS5), respectively, before co-transforming into Saccharomyces cerevisiae strain PRT480 (MATα, his3, trp1, ura3, 4 LexA-LEU2, lys2::3 cIop-LYS2, CAN^R, CYH2^R, ade2::2 LexA-CYH2-ZEO, his5::2 LexA-URA3-G418) using a standard lithium-acetate based chemical transformation protocol.
The Phylomer™ peptide library was transformed into S. cerevisiae strain PRT51 (MATα, his3, trp1, ura3, 6 LexA-LEU2, lys2::3 cIop-LYS2, CYH2^R, ade2::G418-pZero-ade2, met15::Zeo-pBLUE-met15, his5::hygro), using a high-efficiency lithium acetate-based chemical transformation protocol, slightly modified to maximize the number of transformants.
Bait/prey plasmid containing PRT480 haploids (10^8 cells) were mated with the Phylomer™ library (10^7 c.f.u.) according to a liquid mating protocol for pretransformed libraries (Clontech, USA), and plated to HW^− minimal media (minimal media lacking histidine and tryptophan) to select for diploids. These plates were scraped after 2 days incubation at 30° C., and the cells were washed, resuspended 1:1 (v/v) in yeast freezing solution (65% v/v glycerol, 0.1M MgSO4, 25 mM Tris-Cl pH 8.0), and frozen at −80° C. in 1 ml aliquots.
To select peptides that block formation of an AP-1 complex requiring the interaction between JUN1 and JunZ, about 1.5×10^7 c.f.u Jun/Phylomer™ diploids were thawed and outgrown overnight in HW^− to achieve log-phase growth. The following day, 4×10^7 cells were plated onto counter-selective media: HWU^− (lacking histidine, tryptophan and uracil), containing supplements of 0.02% galactose (gal), 2% raffinose (raff), 0.2 μg/ml uracil, 0.06% (w/v) 5-Fluoroorotic acid (FOA), 5 μg/ml cycloheximide. These plates were incubated for 7 days, then colonies were picked to HWU^− 0.02% gal, 2% raff, and then to HWL^− (lacking histidine, tryptophan and leucine) 0.02% gal, 2% raff to confirm blocking phenotype.
These included transformants comprising the clones designated PYC19 [DNA sequence set forth in SEQ ID NO: 26; encoded amino acid sequence set forth in SEQ ID NO: 27 (with FLAG epitope) and 28 (without FLAG epitope)]; PYC35 [DNA sequence set forth in SEQ ID NO: 34; encoded amino acid sequence set forth in SEQ ID NO: 35 (with FLAG epitope) and 36 (without FLAG epitope)]; PYC36 [DNA sequence set forth in SEQ ID NO: 43; encoded amino acid sequence set forth in SEQ ID NO: 44 (with FLAG epitope) and 45 (without FLAG epitope)]; PYC38/39 [DNA sequence set forth in SEQ ID NO: 52; encoded amino acid sequence set forth in SEQ ID NO: 53 (with FLAG epitope) and 54 (without FLAG epitope)]; and PYC41 [DNA sequence set forth in SEQ ID NO: 60; encoded amino acid sequence set forth in SEQ ID NO: 61 (with FLAG epitope) and 62 (without FLAG epitope)].
Subsequently, the individual plasmid clones were rescued from the yeast and re-transformed to confirm the disruption phenotype; 63% of the primary “hits”, including PYC 19, PYC35, […], PYC38/39 and PYC41, were positive in two assays for recapitulation of the phenotype.

[2] = system: neurons around the lesion in the somatosensory cortex; test: Acute cortical injury (focal traumatic brain injury), immunoreactivity in perilesion area; assay type: in vivo; settings: acute cortical injury of rat brain tissue in situ
Protocol: The ability of AP-1 signaling-inhibitory peptides to inhibit neuronal apoptosis was assessed by loss of MAP2 immunoreactivity in a focal model of traumatic brain injury (Chung et al., J. Neuroscience 23, 3336-3342, 2003; King et al., Neuropathol Appl Neurobiol. 27, 115-126, 2001).
Rats were subjected to acute cortical injury as previously described by Chung et al., J. Neuroscience 23, 3336-3342 (2003) and King et al., Neuropathol Appl Neurobiol. 27, 115-126 (2001). Briefly, male 240 g Hooded-Wistar rats were deeply anaesthetized using Isofluorane (2-3%) and were given an analgesic (Meloxycam, […]), by subcutaneous injection. Animals were immobilized in a Stoelting stereotactic frame, and a 21 gauge blunt Hamilton syringe was inserted into the Par1 region of the somatosensory cortex to a depth of 2 mm and was left in place for 10 minutes. Then, 0.5 μl of 5 μM peptide was administered through the syringe at a rate of 0.05 μl/min. Peptide (10 μl) was applied to 1 mm^2 of Gelfoam, which was implanted before suturing. At 1 day post-injury (PI), rats were deeply anaesthetized with sodium pentobarbital (60 mg/kg), then perfused transcardially with a 4% paraformalydehyde and 4% sucrose fixative solution in 0.01M PBS. Brains were removed and cryoprotected in 18% and 30% sucrose solutions, respectively and 40 μm coronal sections were collected serially through the injury site for immunohistochemical labelling. All animal procedures were approved by the University of Tasmania Animal Ethics Committee (Permit A008878).
Sections were labelled with Nissl Red, Nuclear Yellow and anti-MAP2 to allow a quantitative assessment of neuronal loss around the lesion. Sections from the lesion centre and 200 μm anterior and posterior to the centre of the injury, at layer III of the neocortex were included in the analysis and the area of MAP2 loss was scored by blinded observers. Three sections from each of three animals were examined for each treatment and significance assessed by ANOVA and post-hoc comparison (Tukey test).
All data are presented as mean±standard error. […]

[3] = system: AP-1 luciferase reporter in K562/AP1-Luc cells; test: Luciferase reporter gene assay of AP-1 dependent transcriptional activity; assay type: cell-based; settings: pcDNA3-peptide transfection, 48 hours, normalised to renilla, vs pcDNA3 vector
Protocol: Phylomer™ peptides that inhibit an AP-1 complex formation as described in Example 1 were tested for their ability to decrease AP-1 controlled reporter expression (since Jun dimers are AP-1 moieties). A transient transfection assay in which the expression of each clone was plasmid driven was employed, thereby avoiding the synthesis of large numbers of peptides.
The K562 cell line was stably-transfected with the AP-1 luciferase reporter (AP1-Luc) of the Mercury Pathway Profiling kit (Clontech, U.S.A.), and the clonal cell line K562/AP1-Luc was established. In 6-well tissue culture plate format, K562/AP1-Luc cells were transfected with either pcDNA3 control, pcDNA3-JunDN (a dominant negative mutant of c-Jun), or pcDNA3-peptide, using Lipofectamine2000 (Life Technologies) according to manufacturer's instructions. Transfection reactions were incubated for 48 hours, cells collected and protein lysates extracted for luciferase assay according to Mercury Pathway Profiling kit and associated protocols.
Luciferase assays were performed in independent triplicates, and results for each peptide subjected to statistical analysis (SPSS software package) to determine if they were different to JunDN (positive control for AP-1 inhibition) or pcDNA-3 (negative control for AP-1 inhibition).
All AP-1 luciferase values were normalised to the renilla expression from a cotransfection control. Under these experimental conditions, approximately 30% of Phylomer™ peptides decreased AP-1 reporter activity by at least 50% when compared to the vector-only control (i.e., pcDNA3 vector). More particularly, the peptides designated PYC35, PYC36, PYC38/39 and PYC41 reduced AP-1 reporter activity to approximately 35%, 44%, 47% and 48%, respectively of the level observed for the control sample.

## PYC19: Phylomer clone; encoded amino acid sequence SEQ ID NO: 27 (with FLAG epitope) and 28 (without FLAG epitope) (LINQSYAYPYIY; PYC19L peptide)
[1]
  yeast survival on media for counter-selection against AP-1 complex formation viz. c-Jun dimerization: allowed yeast survival
  recapitulation of the disruption phenotype: positive

## PYC35: Phylomer clone; encoded amino acid sequence SEQ ID NO: 35 (with FLAG epitope) and 36 (without FLAG epitope) (AYQSIRSGGIESSSKRER; PYC35L peptide)
[1]
  yeast survival on media for counter-selection against AP-1 complex formation viz. c-Jun dimerization: allowed yeast survival
  recapitulation of the disruption phenotype: positive
[2]
  astrogliosis as determined by glial fibrillary acidic protein immunoreactivity: reduced astrogliosis
  loss of neurons as determined by MAP2 immunoreactivity: reduced loss of neurons
  microglial activation as determined by ferritin immunoreactivity: reduced microglial activation
[3]
  AP-1 reporter activity, of the level observed for the control sample: approximately 35%

## PYC36: Phylomer clone; encoded amino acid sequence SEQ ID NO: 44 (with FLAG epitope) and 45 (without FLAG epitope) (GLQGRRRQGYQSIKP; PYC36L peptide)
[1]
  yeast survival on media for counter-selection against AP-1 complex formation viz. c-Jun dimerization: allowed yeast survival
  recapitulation of the disruption phenotype: positive
[3]
  AP-1 reporter activity, of the level observed for the control sample: ~44%

## PYC38/39: Phylomer clone; encoded amino acid sequence SEQ ID NO: 53 (with FLAG epitope) and 54 (without FLAG epitope) (GLQGRRQPGQQPQGRWSGRALPAHR; PYC38/39L peptide)
[1]
  yeast survival on media for counter-selection against AP-1 complex formation viz. c-Jun dimerization: allowed yeast survival
  recapitulation of the disruption phenotype: positive
[3]
  AP-1 reporter activity, of the level observed for the control sample: ~47%

## PYC41: Phylomer clone; encoded amino acid sequence SEQ ID NO: 61 (with FLAG epitope) and 62 (without FLAG epitope) (VSINQEHHRLLPL; PYC41L peptide)
[1]
  yeast survival on media for counter-selection against AP-1 complex formation viz. c-Jun dimerization: allowed yeast survival
  recapitulation of the disruption phenotype: positive
[3]
  AP-1 reporter activity, of the level observed for the control sample: ~48%

Reference: US8063012B2, “Neuroprotective peptide inhibitors of AP-1 signaling and uses therefor” (Phylogica Limited, priority 2006, dated 2011)
